Experiments:
Experiment in all cases: cell-based or functional assay
[1] = molecular target: HIV-1 Env of isolate 93IN905 (HIV-1)
[2] = molecular target: HIV-1 Env of isolate 93MW959 (HIV-1)
[3] = molecular target: HIV-1 Env of isolate 97ZA012 (HIV-1)
[4] = molecular target: HIV-1 Env of isolate 98IN022 (HIV-1)
[5] = molecular target: HIV-1 Env of isolate JRCSF (HIV-1) (UniProt P20871)
[6] = molecular target: HIV-1 Env of isolate MGRM-Chronic-B-010 (HIV-1)
[7] = molecular target: HIV-1 Env of isolate MGRM-Chronic-B-011 (HIV-1)
[8] = molecular target: HIV-1 Env of isolate MGRM-Chronic-B-012 (HIV-1)
[9] = molecular target: HIV-1 Env of isolate MGRM-Chronic-B-017 (HIV-1)
[10] = molecular target: HIV-1 Env of isolate MGRM-Chronic-B-018 (HIV-1)
[11] = molecular target: HIV-1 Env of isolate MGRM-Chronic-B-020 (HIV-1)
[12] = molecular target: HIV-1 Env of isolate MGRM-Chronic-B-023 (HIV-1)
[13] = molecular target: HIV-1 Env of isolate MGRM-Chronic-B-024 (HIV-1)
[14] = molecular target: HIV-1 Env of isolate MGRM-D-011 (HIV-1)
[15] = molecular target: HIV-1 Env of isolate MGRM-D-012 (HIV-1)
[16] = molecular target: HIV-1 Env of isolate MGRM-D-013 (HIV-1)
[17] = molecular target: HIV-1 Env of isolate MGRM-D-014 (HIV-1)
[18] = molecular target: HIV-1 Env of isolate MGRM-D-016 (HIV-1)
[19] = molecular target: HIV-1 Env of isolate MGRM-D-018 (HIV-1)
[20] = molecular target: HIV-1 Env of isolate MGRM-D-019 (HIV-1)
[21] = molecular target: HIV-1 Env of isolate MGRM-D-020 (HIV-1)
[22] = molecular target: HIV-1 Env of isolate MGRM-D-021 (HIV-1)
[23] = molecular target: HIV-1 Env of isolate MGRM-D-022 (HIV-1)
[24] = molecular target: HIV-1 Env of isolate MGRM-D-024 (HIV-1)
[25] = molecular target: HIV-1 Env of isolate MGRM-D-026 (HIV-1)
[26] = molecular target: HIV-1 Env of isolate MGRM-D-028 (HIV-1)
[27] = molecular target: HIV-1 Env of isolate MGRM-D-029 (HIV-1)
[28] = molecular target: HIV-1 Env of isolate MGRM-F1-004 (HIV-1)
[29] = molecular target: HIV-1 Env of isolate MGRM-F1-006 (HIV-1)
[30] = molecular target: HIV-1 Env of isolate MGRM-F1-008 (HIV-1)
[31] = molecular target: HIV-1 Env of isolate MGRM-F1-010 (HIV-1)
[32] = molecular target: HIV-1 Env of isolate MGRM-F1-012 (HIV-1)
[33] = molecular target: HIV-1 Env of isolate MGRM-F1-013 (HIV-1)
[34] = molecular target: HIV-1 Env of isolate MGRM-F1-014 (HIV-1)
[35] = molecular target: HIV-1 Env of isolate MGRM-F1-015 (HIV-1)
[36] = molecular target: HIV-1 Env of isolate MGRM-F1-016 (HIV-1)
[37] = molecular target: HIV-1 Env of isolate MGRM-F1-017 (HIV-1)
[38] = molecular target: HIV-1 Env of isolate MGRM-F1-018 (HIV-1)
[39] = molecular target: HIV-1 Env of isolate MGRM-F1-020 (HIV-1)
[40] = molecular target: HIV-1 Env of isolate MGRM-F1-021 (HIV-1)
[41] = molecular target: HIV-1 Env of isolate MGRM-F1-022 (HIV-1)
[42] = molecular target: HIV-1 Env of isolate MGRM-F1-023 (HIV-1)
[43] = molecular target: HIV-1 Env of isolate NL43 (HIV-1)
[44] = molecular target: HIV-1 Env of isolate PVO.4 (HIV-1)
[45] = molecular target: HIV-1 Env of isolate QH0692.42 (HIV-1)
[46] = molecular target: HIV-1 Env of isolate SC422661.8 (HIV-1)
[47] = molecular target: HIV-1 Env of isolate SF162 (HIV-1) (UniProt P19550)
[48] = molecular target: HIV-1 Env of isolate THR0.18 (HIV-1)
[49] = molecular target: HIV-1 Env of isolate TRJ04551.58 (HIV-1)
[50] = molecular target: HIV-1 Env of isolate TRO.11 (HIV-1)
[51] = molecular target: HIV-1 Env of isolate VLGCB3 (HIV-1)

Chain of PGT-142 (antibody) (VH): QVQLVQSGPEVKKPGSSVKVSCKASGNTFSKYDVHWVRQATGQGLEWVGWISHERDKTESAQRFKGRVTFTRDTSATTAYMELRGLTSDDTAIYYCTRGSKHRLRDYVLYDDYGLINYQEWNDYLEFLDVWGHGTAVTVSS
Chain of PGT-142 (antibody) (VL): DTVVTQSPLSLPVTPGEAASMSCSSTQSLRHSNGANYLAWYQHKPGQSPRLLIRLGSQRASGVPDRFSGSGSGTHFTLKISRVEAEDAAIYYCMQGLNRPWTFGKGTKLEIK
Chain of PGT-141 (antibody) (VH): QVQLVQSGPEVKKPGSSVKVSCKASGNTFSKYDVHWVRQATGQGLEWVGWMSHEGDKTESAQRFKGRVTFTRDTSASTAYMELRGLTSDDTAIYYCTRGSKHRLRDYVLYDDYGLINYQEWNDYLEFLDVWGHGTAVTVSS
Chain of PGT-141 (antibody) (VL): as the sequence (VL) above

For PGT-141 (antibody), the neutralization IC50 [1] was 0.001 µg/mL, the neutralization IC50 [2] was 0.003 µg/mL and the neutralization IC50 [3] was > 50 µg/mL. For the same substance, the neutralization IC50 [4] was 0.001 µg/mL, the neutralization IC50 [5] was 0.009 µg/mL and the neutralization IC50 [6] was > 50 µg/mL. The neutralization IC50 [7] was 2.24 µg/mL, the neutralization IC50 [8] was > 50 µg/mL and the neutralization IC50 [9] was 0.147 µg/mL. For the same substance, the neutralization IC50 [10] was 0.572 µg/mL, the neutralization IC50 [11] was > 50 µg/mL and the neutralization IC50 [12] was 0.318 µg/mL. For the same substance, the neutralization IC50 [13] was 0.011 µg/mL, the IC50, pseudovirus neutralization [14] was > 50 µg/mL and the IC50, pseudovirus neutralization [15] was > 50 µg/mL. For the same substance, the IC50, pseudovirus neutralization [16] was 0.179 µg/mL, the IC50, pseudovirus neutralization [17] was 0.01 µg/mL and the IC50, pseudovirus neutralization [18] was > 50 µg/mL. For the same substance, the IC50, pseudovirus neutralization [19] was > 50 µg/mL, the IC50, pseudovirus neutralization [20] was 1.66 µg/mL and the IC50, pseudovirus neutralization [21] was > 50 µg/mL. The IC50, pseudovirus neutralization [22] was > 50 µg/mL, the IC50, pseudovirus neutralization [23] was > 50 µg/mL and the IC50, pseudovirus neutralization [24] was > 50 µg/mL. For the same substance, the IC50, pseudovirus neutralization [25] was 32.5 µg/mL, the IC50, pseudovirus neutralization [26] was < 50 µg/mL and the IC50, pseudovirus neutralization [27] was 0.057 µg/mL. The IC50, pseudovirus neutralization [28] was 0.021 µg/mL, the IC50, pseudovirus neutralization [29] was 8.99 µg/mL and the IC50, pseudovirus neutralization [30] was 0.193 µg/mL. For the same substance, the IC50, pseudovirus neutralization [31] was > 50 µg/mL, the IC50, pseudovirus neutralization [32] was > 50 µg/mL and the IC50, pseudovirus neutralization [33] was 0.043 µg/mL. The IC50, pseudovirus neutralization [34] was 0.001 µg/mL, the IC50, pseudovirus neutralization [35] was > 50 µg/mL and the IC50, pseudovirus neutralization [36] was > 50 µg/mL. For the same substance, the IC50, pseudovirus neutralization [37] was 30.8 µg/mL, the IC50, pseudovirus neutralization [38] was 0.785 µg/mL and the IC50, pseudovirus neutralization [39] was 1.15 µg/mL. The IC50, pseudovirus neutralization [40] was > 50 µg/mL, the IC50, pseudovirus neutralization [41] was 0.114 µg/mL and the IC50, pseudovirus neutralization [42] was 0.307 µg/mL. The neutralization IC50 [43] was > 50 µg/mL, the neutralization IC50 [44] was 0.113 µg/mL and the neutralization IC50 [45] was > 50 µg/mL. The neutralization IC50 [46] was 1.66 µg/mL, the neutralization IC50 [47] was > 50 µg/mL and the neutralization IC50 [48] was 0.007 µg/mL. The neutralization IC50 [49] was > 50 µg/mL, the neutralization IC50 [50] was 0.383 µg/mL and the neutralization IC50 [51] was > 50 µg/mL.

In the case of PGT-142 (antibody), the neutralization IC50 [1] is reported as 0.001 µg/mL, the neutralization IC50 [2] is reported as 0.001 µg/mL and the neutralization IC50 [3] is reported as > 50 µg/mL. The neutralization IC50 [4] was 0.001 µg/mL, the neutralization IC50 [5] was 0.01 µg/mL and the neutralization IC50 [6] was > 50 µg/mL. For the same substance, the neutralization IC50 [7] was 0.994 µg/mL, the neutralization IC50 [8] was > 50 µg/mL and the neutralization IC50 [9] was 0.076 µg/mL. For the same substance, the neutralization IC50 [10] was 0.323 µg/mL, the neutralization IC50 [11] was > 50 µg/mL and the neutralization IC50 [12] was 0.486 µg/mL. For the same substance, the neutralization IC50 [13] was 0.005 µg/mL, the IC50, pseudovirus neutralization [14] was > 50 µg/mL and the IC50, pseudovirus neutralization [15] was > 50 µg/mL. For the same substance, the IC50, pseudovirus neutralization [16] was 0.221 µg/mL, the IC50, pseudovirus neutralization [17] was 0.005 µg/mL and the IC50, pseudovirus neutralization [18] was > 50 µg/mL. The IC50, pseudovirus neutralization [19] was > 50 µg/mL, the IC50, pseudovirus neutralization [20] was 0.155 µg/mL and the IC50, pseudovirus neutralization [21] was > 50 µg/mL. The IC50, pseudovirus neutralization [22] was > 50 µg/mL, the IC50, pseudovirus neutralization [23] was > 50 µg/mL and the IC50, pseudovirus neutralization [24] was > 50 µg/mL. For the same substance, the IC50, pseudovirus neutralization [25] was 12.5 µg/mL, the IC50, pseudovirus neutralization [26] was > 50 µg/mL and the IC50, pseudovirus neutralization [27] was 0.192 µg/mL. For the same substance, the IC50, pseudovirus neutralization [28] was 0.013 µg/mL, the IC50, pseudovirus neutralization [29] was 12.9 µg/mL and the IC50, pseudovirus neutralization [30] was 0.124 µg/mL. For the same substance, the IC50, pseudovirus neutralization [31] was > 50 µg/mL, the IC50, pseudovirus neutralization [32] was > 50 µg/mL and the IC50, pseudovirus neutralization [33] was 0.023 µg/mL. The IC50, pseudovirus neutralization [34] was 0.001 µg/mL, the IC50, pseudovirus neutralization [35] was > 50 µg/mL and the IC50, pseudovirus neutralization [36] was > 50 µg/mL. It also gave an IC50, pseudovirus neutralization [37] of 23.5 µg/mL, an IC50, pseudovirus neutralization [38] of 0.404 µg/mL and an IC50, pseudovirus neutralization [39] of 0.824 µg/mL. For the same substance, the IC50, pseudovirus neutralization [40] was > 50 µg/mL, the IC50, pseudovirus neutralization [41] was 0.04 µg/mL and the IC50, pseudovirus neutralization [42] was 0.602 µg/mL. For the same substance, the neutralization IC50 [43] was > 50 µg/mL, the neutralization IC50 [44] was 0.066 µg/mL and the neutralization IC50 [45] was > 50 µg/mL. The neutralization IC50 [46] was 3.15 µg/mL, the neutralization IC50 [47] was > 50 µg/mL and the neutralization IC50 [48] was 0.012 µg/mL. For the same substance, the neutralization IC50 [49] was > 50 µg/mL, the neutralization IC50 [50] was 0.27 µg/mL and the neutralization IC50 [51] was > 50 µg/mL.

Source: patent US20200024330A1
